The experiment deals with HLA-A*02:01 (Homo sapiens, UniProt P04439, D140Y/D185E/D98H/E176V/E277Q/G131W/G231S/I119V/I121R/I166T/I218V/L300P/L318F/N151K/N90K/P208A/P217A/Q86G/Q94H/R138H/R169H/T345S). In words: MHC binding assay (UV-ligand exchange, β2m ELISA, peptide exchange yield). Conditions: MHC class I binding score; binding to HLA-A*02:01 ranged by peptide exchange yield (UV-ligand exchange, β2m ELISA). In a few lines: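 Peptide–HLA-A*02:01 complexes were formed by UV-mediated exchange of a UV-cleavable ligand for the test peptide. Exchange yield was measured by capturing complexes on streptavidin, detecting with HRP anti-β2m antibody (1 h, 37°C) and reading TMB absorbance at 450 nm.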
On the technique in general: In an ELISA, binding on a coated surface is turned into a signal by an enzyme label.
As to “223 (ALLENIALYL; listed as Homo sapiens) [compound 223]”, the Peptide exchange result was ““+++” (≧50 = +++)”. The value for “224 (TLIDAQWVL; listed as Homo sapiens) [compound 224]” was ““+++” (≧50 = +++)”.

Regarding “225 (SLLKVLPAL; listed as Homo sapiens) [compound 225]”, the Peptide exchange entry is ““+++” (≧50 = +++)”. On to “226 (MLYVVPIYL; listed as Homo sapiens) [compound 226]”, for which the Peptide exchange result is reported as ““++” (≧20% = ++)”. The same measure for “227 (ALMNTLLYL; listed as Homo sapiens) [compound 227]”: ““++” (≧20% = ++)”; for “228 (AMQEYIAVV; listed as Homo sapiens) [compound 228]”: ““++” (≧20% = ++)”; for “229 (RLPGPLGTV; listed as Homo sapiens) [compound 229]”: ““++” (≧20% = ++)”. The value for “230 (ILVDWLVEV; listed as Homo sapiens) [compound 230]” was ““+” (≧10% = +)”.

As for “231 (FLSPQQPPLLL; listed as Homo sapiens) [compound 231]”, the Peptide exchange result was ““++” (≧20% = ++)”. Turning to “232 (ALLEAQDVELYL; listed as Homo sapiens) [compound 232]”, the Peptide exchange result is on record as ““++” (≧20% = ++)”. The value for “233 (VLSETLYEL; listed as Homo sapiens) [compound 233]” was ““++” (≧20% = ++)”; that for “234 (ALMEDTGRQML; listed as Homo sapiens) [compound 234]” was ““++” (≧20% = ++)”; that for “235 (YLNDLHEVLL; listed as Homo sapiens) [compound 235]” was ““++++” (≧75% = ++++)”. The value for “236 (GLLEAKVSL; listed as Homo sapiens) [compound 236]” was ““+++” (≧50 = +++)”; that for “237 (ALLEASGTLLL; listed as Homo sapiens) [compound 237]” was ““++++” (≧75% = ++++)”.

For the substance “238 (YLISFQTHI; listed as Homo sapiens) [compound 238]”, the Peptide exchange result is ““+++” (≧50 = +++)”. Take “239 (AAFAGKLLSV; listed as Homo sapiens) [compound 239]”: the Peptide exchange entry is given as ““+++” (≧50 = +++)”. Take “240 (ILLEQAFYL; listed as Homo sapiens) [compound 240]”: the Peptide exchange entry is listed as ““+++” (≧50 = +++)”. For “241 (SLVEVNPAYSV; listed as Homo sapiens) [compound 241]”, the Peptide exchange result is recorded as ““+++” (≧50 = +++)”. The value for “243 (LLLNELPSV; listed as Homo sapiens) [compound 243]” was ““+++” (≧50 = +++)”. As for “244 (SLFGGTEITI; listed as Homo sapiens) [compound 244]”, the Peptide exchange result is ““+++” (≧50 = +++)”.

Take “245 (SMIDDLLGV; listed as Homo sapiens) [compound 245]”: the Peptide exchange result was ““+++” (≧50 = +++)”. The value for “246 (LLWEVVSQL; listed as Homo sapiens) [compound 246]” was ““+++” (≧50 = +++)”; that for “248 (FLFPNQYVDV; listed as Homo sapiens) [compound 248]” was ““+++” (≧50 = +++)”. Take “249 (LLDGFLVNV; listed as Homo sapiens) [compound 249]”: the Peptide exchange entry is ““+++” (≧50 = +++)”. The same measure for “250 (ALSEEGLLVYL; listed as Homo sapiens) [compound 250]”: ““+++” (≧50 = +++)”; for “251 (ALYTGFSILV; listed as Homo sapiens) [compound 251]”: ““++” (≧20% = ++)”. For the substance “252 (LLIGTDVSL; listed as Homo sapiens) [compound 252]”, the Peptide exchange entry is ““+++” (≧50 = +++)”. For the substance “253 (GLDAATATV; listed as Homo sapiens) [compound 253]”, the Peptide exchange result is ““++” (≧20% = ++)”. The value for “254 (TLLAFIMEL; listed as Homo sapiens) [compound 254]” was ““+++” (≧50 = +++)”; that for “255 (VLASYNLTV; listed as Homo sapiens) [compound 255]” was ““+++” (≧50 = +++)”; that for “256 (FLPPEHTIVYI; listed as Homo sapiens) [compound 256]” was ““+++” (≧50 = +++)”. The value for “257 (SIFSAFLSV; listed as Homo sapiens) [compound 257]” was ““+++” (≧50 = +++)”; that for “258 (ELAERVPAI; listed as Homo sapiens) [compound 258]” was ““++” (≧20% = ++)”; that for “261 (YVLEFLEEI; listed as Homo sapiens) [compound 261]” was ““++” (≧20% = ++)”. The same measure for “262 (LLWGDLIWL; listed as Homo sapiens) [compound 262]”: ““+++” (≧50 = +++)”.

Turning to “263 (LLVSNLDFGV; listed as Homo sapiens) [compound 263]”, the Peptide exchange result was ““+++” (≧50 = +++)”. Consider “264 (SLQEQLHSV; listed as Homo sapiens) [compound 264]”, for which the Peptide exchange entry is recorded as ““+++” (≧50 = +++)”. The same measure for “265 (LLFGGTKTV; listed as Homo sapiens) [compound 265]”: ““++” (≧20% = ++)”; for “266 (KITDTLIHL; listed as Homo sapiens) [compound 266]”: ““+++” (≧50 = +++)”; for “267 (ALQDFLLSV; listed as Homo sapiens) [compound 267]”: ““+++” (≧50 = +++)”.

For the substance “269 (RVLEVGALQAV; listed as Homo sapiens) [compound 269]”, the Peptide exchange result is ““++” (≧20% = ++)”. For the substance “270 (LLLDEEGTFSL; listed as Homo sapiens) [compound 270]”, the Peptide exchange result is on record as ““++” (≧20% = ++)”.

With “271 (LVYPLELYPA; listed as Homo sapiens) [compound 271]”, the Peptide exchange entry is on record as ““+++” (≧50 = +++)”. Turning to “272 (ALGNTVPAV; listed as Homo sapiens) [compound 272]”, the Peptide exchange entry is given as ““+++” (≧50 = +++)”. The same measure for “273 (NLFQSVREV; listed as Homo sapiens) [compound 273]”: ““++” (≧20% = ++)”; for “274 (SLLFSLFEA; listed as Homo sapiens) [compound 274]”: ““++” (≧20% = ++)”. The same measure for “275 (YLVYILNEL; listed as Homo sapiens) [compound 275]”: ““++” (≧20% = ++)”; for “276 (ALFTFSPLTV; listed as Homo sapiens) [compound 276]”: ““+++” (≧50 = +++)”. The value for “277 (LLPPLESLATV; listed as Homo sapiens) [compound 277]” was ““++” (≧20% = ++)”; that for “278 (QLLDVVLTI; listed as Homo sapiens) [compound 278]” was ““++” (≧20% = ++)”. Turning to “279 (ALWGGTQPLL; listed as Homo sapiens) [compound 279]”, the Peptide exchange result is ““++” (≧20% = ++)”.

Regarding “280 (VLPDPEVLEAV; listed as Homo sapiens) [compound 280]”, the Peptide exchange result is recorded as ““+++” (≧50 = +++)”.

With “281 (ILRESTEEL; listed as Homo sapiens) [compound 281]”, the Peptide exchange entry is listed as ““+++” (≧50 = +++)”. The same measure for “282 (LLADVVPTT; listed as Homo sapiens) [compound 282]”: ““+++” (≧50 = +++)”; for “284 (ILLSQTTGV; listed as Homo sapiens) [compound 284]”: ““+++” (≧50 = +++)”; for “285 (QLLHVGVTV; listed as Homo sapiens) [compound 285]”: ““+++” (≧50 = +++)”.

As to “286 (YLFPGIPEL; listed as Homo sapiens) [compound 286]”, the Peptide exchange entry is on record as ““+++” (≧50 = +++)”.

For the substance “287 (FLNEFFLNV; listed as Homo sapiens) [compound 287]”, the Peptide exchange entry is reported as ““+++” (≧50 = +++)”.

Consider “288 (NLINEINGV; listed as Homo sapiens) [compound 288]”, for which the Peptide exchange entry is recorded as ““+++” (≧50 = +++)”.

Take “289 (VLLEIEDLQV; listed as Homo sapiens) [compound 289]”: the Peptide exchange result is ““++++” (≧75% = ++++)”. Take “295 (VLDRESPNV; listed as Homo sapiens) [compound 295]”: the Peptide exchange entry was ““+++” (≧50 = +++)”.

“296 (FMEGAIIYV; listed as Homo sapiens) [compound 296]”: the Peptide exchange result is ““+++” (≧50 = +++)”. As for “297 (VLADIELAQA; listed as Homo sapiens) [compound 297]”, the Peptide exchange result is recorded as ““+++” (≧50 = +++)”.

As for “298 (VMITKLVEV; listed as Homo sapiens) [compound 298]”, the Peptide exchange result is ““+++” (≧50 = +++)”. For the substance “299 (YLLETSGNL; listed as Homo sapiens) [compound 299]”, the Peptide exchange entry is on record as ““+++” (≧50 = +++)”. “300 (ALLGQTFSL; listed as Homo sapiens) [compound 300]”: the Peptide exchange entry is recorded as ““+++” (≧50 = +++)”.

For the substance “301 (FLVEDLVDSL; listed as Homo sapiens) [compound 301]”, the Peptide exchange result is ““+++” (≧50 = +++)”. For the substance “302 (ALLQEGEVYSA; listed as Homo sapiens) [compound 302]”, the Peptide exchange result is ““+++” (≧50 = +++)”. Turning to “303 (AILPQLFMV; listed as Homo sapiens) [compound 303]”, the Peptide exchange entry is recorded as ““++++” (≧75% = ++++)”.
